From EP4592315A1 (Biotheus Inc., dated 2024)

T1: human FcγRIIb (human, UniProt P31994 43-310)
T1 construct: whole, on cells; also called hCD32b; CD32b
T1 sequence (looked up): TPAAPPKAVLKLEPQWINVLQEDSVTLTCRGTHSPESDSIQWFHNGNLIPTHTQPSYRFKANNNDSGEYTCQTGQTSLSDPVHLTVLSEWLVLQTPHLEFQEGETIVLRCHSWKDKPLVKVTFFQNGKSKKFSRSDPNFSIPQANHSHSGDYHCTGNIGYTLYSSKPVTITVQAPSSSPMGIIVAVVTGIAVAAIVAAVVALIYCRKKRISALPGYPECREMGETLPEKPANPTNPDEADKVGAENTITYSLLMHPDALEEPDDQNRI

B1: Urelumab (antibody, human IgG4 S228P, kappa)
heavy: not shown
light: not shown
notes: also called Urelumab Analog; copies: 2 + 2
B2: HER2xHER2x4-1BB-1 (bispecific antibody, human IgG1, kappa)
heavy 1: not shown
light 1: DIQMTQSPSSLSASVGDRVTITCRASQSVQGAVAWYQQKPGKAPKLLIYSASFLYSGVPSRFSGSRSGTDFTLTISSLQPEDFATYYCQQHSTTPPTFGQGTKVEIKRTVAAPSVFIFPPSDEQLKSGRASVVCLLNNFYPREAKVQWKVDNALQSGNSQESVTEQDSKDSTYSLSSRLQLSKADYEKHKVYACEVTHQGLSSPVTKSFNRGEC
heavy 2: not shown
light 2: DIQMTQSPSSLSASVGDRVTITCKASQDVSIGVAWYQQKPGKAPKLLIYSASYRYTGVPSRFSGSGSGTDFTLTISSLQPEDFATYYCQQYYIYPYTFGQGTKVEIKRTVAAPSVFIFPPSDEELKSGTASVQCLLNNFYPREAKVQWKVDNALQSGNSQESVTEQDSKDSTYSLSSELTLSKADYEKHKVYACEVTHQGLSSPVTKSFNRGEC
notes: also called HER2×HER2×4-1BB-1; HER2 × HER2 × 4-1BB-1

Columns and labels:
human 4-1BB = target: T2, human 4-1BB (human, UniProt Q07011 24-255); assay: flow cytometry on CHOS-h4-1BB cells (overexpressing human 4-1BB), anti-human IgG-Fc PE
T2 construct: whole, on cells; also called h4-1BB; CD137

human FcγRIIb = target: T1, human FcγRIIb; assay: flow cytometry on CHOS-hCD32b cells (overexpressing human FcγRIIb), anti-human IgG-Fc PE

T2 sequence (Q07011 24-255): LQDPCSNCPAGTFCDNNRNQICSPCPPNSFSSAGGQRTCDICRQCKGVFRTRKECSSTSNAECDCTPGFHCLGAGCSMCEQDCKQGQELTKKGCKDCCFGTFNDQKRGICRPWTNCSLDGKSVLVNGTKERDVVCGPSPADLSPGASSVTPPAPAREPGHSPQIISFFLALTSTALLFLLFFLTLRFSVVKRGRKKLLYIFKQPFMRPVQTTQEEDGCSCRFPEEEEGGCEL

| Binder | EC50 (human 4-1BB) [nM] | EC50 (human FcγRIIb) [nM] |
| --- | --- | --- |
| B1 | 0.316 | – |
| B2 | 6.99 | 1.06 |
